Drawing on patent US8338123B2, “Food production process” (DSM IP Assets B.V., priority 2002, dated 2012), this text covers cancer risk, Km and Vmax for two molecules.

In one data set the test system is humans. The settings on record: life-long exposure, daily uptake 1.6 ug acrylamide/kg; cited from earlier work.
Substrate in data set [1]: NC(=O)C[C@H](N)C(=O)O
Nature of the data set: purified protein, by the assay type. As to conditions: other: substrate L-asparagine, pH 5.5, 37° C.

Regarding `C=CC(N)=O` [acrylamide], the cancer risk with humans is on record as 7*10^−3.

B1: Aspergillus niger asparaginase ASPA01, SEQ ID NO: 3 (Aspergillus niger CBS 513.88) (protein)
chain: SPLLYSRTTNETFVFTNANGLNFTQMNTTLPNVTIFATGGTIAGSDSSSTATTGYTSGAVGVLSLIDAVPSMLDVANVAGVQVANVGSEDITSDILISMSKKLNRVVCEDPTMAGAVITHGTDTLEETAFFLDATVNCGKPIVIVGAMRPSTAISADGPFNLLEAVTVAASTSARDRGAMVVMNDRIASAYYVTKTNANTMDTFKAMEMGYLGEMISNTPFFFYPPVKPTGKVAFDITNVTEIPRVDILFSYEDMHNDTLYNAISSGAQGIVIAGAGAGGVTTSFNEAIEDVINRLEIPVVQSMRTVNGEVPLSDVSSDTATHIASGYLNPQKSRILLGLLLSQGKNITEIADVFALGTDA
The term Km denotes the concentration of substrate that gives half-maximal velocity. For orientation: Vmax means the top rate of the reaction or transport when substrate is in excess. In the case of B1, in data set [1], the Km was 2400 ± 300 µM and the maximal velocity (Vmax) was found to be 1100 µmol/min/mg.
